Test results published in US10144929B2, “Polypeptide inhibitors of Smad3 polypeptide activities” (Mayo Foundation for Medical Education and Research, priority 2016, dated 2018).
No end group written: not given here.

Molecular target: T1, pSmad3 (Mus musculus, UniProt Q8BUN5)
T1 construct: endogenous in cells; host or cells: AKR-2B cells
Assay: Nuclear import of pSmad3 (nuclear fractions Western, immunofluorescence) in AKR-2B cells
Assay type: cell-based
Conditions: 90 minutes transduction, TGFβ 5 ng/mL 1 hour
Experimental: FIGS. 1A-C. SH3 domain of sorting nexin 9 (SNX9) specifically binds pSmad3 and prevents nuclear import. (A) Cartoon depicting domains in full length (FL) SNX9 and constructs used for GST pull down assays. Lysates from AKR-2B cells untreated (−) or stimulated (+) for 45 minutes with 5 ng/mL TGFβ were incubated with GST beads or the indicated fusion polypeptides immobilized on GST beads. Bound polypeptides were eluted and assessed by Western analysis for pSmad3 or pSmad2. Cell lysate reflects signal obtained from 10 μg total protein. (B) AKR-2B cells were transduced for 90 minutes with the indicated concentrations of the TAT-SNX9(SH3) fusion polypeptides. […] Quantitation of nuclear pSmads was performed with Image J software and represents the mean+/−sd of two experiments (Right). […] Quantitation of nuclear Smad3 from 30 cells in each of two experiments (Right).
FIGS. 3A-E. Inhibition of Smad3 signaling by a defined region of the SH3 domain in SNX9. […] (B) Nuclear fractions were prepared and assessed as in FIG. 1B following transduction with the indicated TAT-SNX9(SH3) fusion polypeptide (Left). Quantitation (mean+/−sd) of nuclear pSmad2 or pSmad3 from 2 experiments (Right). (C) Immunofluorescence of nuclear Smad3 was determined as in FIG. 1C from 30 cells in each of two experiments in the absence (−) or presence (+) of 5 ng/mL TGFβ and the indicated TAT-SNX9(SH3) fusion polypeptide (1.5 μM). […]

T1 sequence (Q8BUN5 whole entry): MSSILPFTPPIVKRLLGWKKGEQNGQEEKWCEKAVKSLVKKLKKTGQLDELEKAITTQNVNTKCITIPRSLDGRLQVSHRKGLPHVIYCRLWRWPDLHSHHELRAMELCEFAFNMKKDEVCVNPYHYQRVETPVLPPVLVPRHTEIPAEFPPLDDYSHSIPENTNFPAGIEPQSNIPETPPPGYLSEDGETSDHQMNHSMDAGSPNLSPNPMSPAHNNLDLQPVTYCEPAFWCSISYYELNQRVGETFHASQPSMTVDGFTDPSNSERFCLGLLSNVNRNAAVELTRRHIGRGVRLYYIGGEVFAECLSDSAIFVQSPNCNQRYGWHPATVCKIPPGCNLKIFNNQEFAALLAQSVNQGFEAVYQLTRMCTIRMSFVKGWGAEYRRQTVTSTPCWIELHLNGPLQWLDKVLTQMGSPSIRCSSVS

TAT-containing polypeptide encoding amino acids 27-42 of SNX9: 16 mer TAT-SNX9(SH3) fusion polypeptide, SNX9 amino acids 27-42; probably SH3-2-2 (SEQ ID NO:34) (IITITNPDVGGGWLEG; also: TAT cell-penetrating peptide fusion; UniProt Q9Y5X1 27-42, looked up, fragment)
nuclear import of pSmad3: activity similar to that obtained with SB431542
